The values that follow are results of earlier work, collected in publication PMC8193598.

“And” between values parts separate entries of the source, which are not always exact repeats. Equal values may be shown once. Read-outs that look alike come from different tables or passages of the source.

Data set [1] has as its target spike protein (SARS-CoV-2) (UniProt P0DTC2).
Data set [2] shares this target. The source holds these as a separate data set.
Data set [3] concerns the target SARS-CoV-2 S1 CendR peptide CendR peptide (SARS-CoV-2) (UniProt P0DTC2).

Sequence of KREMEN1 (Q96MU8 20-392): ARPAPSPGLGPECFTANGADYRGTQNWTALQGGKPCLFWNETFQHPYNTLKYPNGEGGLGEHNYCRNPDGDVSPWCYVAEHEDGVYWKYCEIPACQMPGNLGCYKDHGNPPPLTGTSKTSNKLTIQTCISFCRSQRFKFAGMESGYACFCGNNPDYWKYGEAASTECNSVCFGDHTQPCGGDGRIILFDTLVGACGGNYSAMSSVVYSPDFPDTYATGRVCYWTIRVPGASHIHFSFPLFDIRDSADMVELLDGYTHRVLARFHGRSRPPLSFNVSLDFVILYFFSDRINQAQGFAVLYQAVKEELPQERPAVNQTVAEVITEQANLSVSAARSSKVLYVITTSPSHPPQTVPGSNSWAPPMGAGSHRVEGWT
Sequence of ASGR1 (P07306 whole entry): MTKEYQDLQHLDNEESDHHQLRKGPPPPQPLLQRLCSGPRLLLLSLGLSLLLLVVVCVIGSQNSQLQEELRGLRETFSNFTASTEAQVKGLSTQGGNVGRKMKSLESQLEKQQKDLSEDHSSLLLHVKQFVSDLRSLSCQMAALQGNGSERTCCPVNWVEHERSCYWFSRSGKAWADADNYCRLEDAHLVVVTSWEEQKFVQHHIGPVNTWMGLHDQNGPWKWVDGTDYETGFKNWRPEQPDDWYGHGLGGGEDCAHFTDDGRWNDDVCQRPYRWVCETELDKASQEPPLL

On to ASGR1 (from UniProt P07306), for which the Kd in data set [1] was 94.8 nM.
Take KREMEN1 (from UniProt Q96MU8): the Kd in data set [2] is 19.3 nM.
For the substance “neuropilin-1 coagulation factor domain (from UniProt O14786)”, the Kd in data set [3] is 20.3 µM and 13 µM.
